Data set [1] has as its target NrdR2^PAO (GSGSGS-NrdR2, P. aeruginosa NrdR after TEV digestion) (P. aeruginosa PAO1). Briefly: SEC-MALS.
Data set [2] shares this target. Briefly: SEC-MALS. The source holds these as a separate data set.
For data set [3] the target is unchanged. Briefly: SEC-MALS. This is another data set of the same source.
For data set [4], the target named is NrdR1^PAO (P. aeruginosa NrdR with a two amino acid linker after SUMO protease digestion) (P. aeruginosa PAO1). Briefly: SEC.
Data set [5] shares this target. Briefly: SEC. This is another data set of the same source.
Data set [6] deals with P0A8D0. Briefly: SEC-MALS.
Data set [7] concerns the molecule itself. Briefly: SEC-MALS.
For data set [8], the target named is P0A8D0. Briefly: SEC-MALS. The source holds these as a separate data set.
Data set [9] deals with the molecule itself. Briefly: SEC-MALS. The source holds these as a separate data set.
Data set [10] concerns the molecule itself. Description: SEC-MALS. The source holds these as a separate data set.
Data set [11] deals with the molecule itself. Briefly: SEC.
Data set [12] deals with the molecule itself. Briefly: SEC-MALS. The source holds these as a separate data set.
Data set [13] concerns the molecule itself. Description: SEC-MALS. The source holds these as a separate data set.
Data set [14] concerns the molecule itself. Description: SEC-MALS. This is another data set of the same source.

Numbering of substitutions follows the chain as printed. In names and notes the source's numbering stands. Several values for one entry are separate records, joined by “and”; a condition that tells them apart may be missing. Equal entries are not always repeated. Where two headings read alike, the source gives them in different places. Where only a bound is given, the exact number is not on record here.

Take “NrdR2^PAO (GSGSGS-NrdR2, P. aeruginosa NrdR after TEV digestion) (natural protein)”: the stoichiometry N in data set [1] is greater than 2; in data set [2], greater than 2; in data set [3], 2.

Consider “NrdR1^PAO (P. aeruginosa NrdR with a two amino acid linker after SUMO protease digestion) (natural protein)”, for which the stoichiometry N is 2 and 3 in [4]; 6 and 2 in data set [5].

B1: SUMO-NrdR2^ECO E42A (natural protein, E. coli K-12 MG1655)
chain: ENLYPQGSGSGSMHCPFCFAVDTKVIDSRLVGEGSSVRRRRQCLVCNERFTTFAVAELVMPRVVKSNDVREPFNEEKLRSGMLRALEKRPVSSDDVEMAINHIKSQLRATGEREVPSKMIGNLVMEQLKKLDKVAYIRFASVYRSFEDIKEFGEEIARLED
Consider B1, for which the results for the “percent of the protein mass in the monomer peak” value in [6] and in [8] were 63% in a peak with average Mw 33.21 kDa and 83% in a peak with average Mw 36.88 kDa, respectively. In addition, the “stoichiometry N” value in data set [7] was 2.

B2: SUMO-NrdR2^ECO E36A (natural protein, E. coli K-12 MG1655)
chain: B1 chain with E48A, A54E
As for B2, the “stoichiometry N” value was 3 in [9]; 2 and ≥ 4 in [7].

B3: SUMO-NrdR2^ECO Y131A (natural protein, E. coli K-12 MG1655)
chain: B1 chain with A54E, Y143A
As for B3, the “stoichiometry N” value in [7] was 2; in data set [10], 4 and 8 and 3.

B4: SUMO-NrdR2^ECO (undigested 6His-SUMO-TEVcs-(SGSGS)-NrdR, E. coli), wild type (natural protein, E. coli K-12 MG1655)
chain: B1 chain with A54E
Regarding B4, the “stoichiometry N” value in data set [9] is 4 and 8; in data set [7], 2 and ≥ 4; in data set [10] it was 12.

B5: NrdR^PAO-H6 (P. aeruginosa NrdR with a C-terminal 6His-tag) (natural protein, P. aeruginosa PAO1, UniProt Q9HWX1 1-154, looked up)
chain: MHCPFCGAHDTKVIDSRLVAEGDQVRRRRECLACGERFTTFETAELVMPRLIKQDGSRQPFDEDKLRAGMQRALEKRPVSVERLEAAIGHIKHQLRATGEREIKSRVLGELVMAELQKLDEVAYIRFASVYRRFQDLNEFREEIERLAREPAKE
With B5, in data set [11], the binding result is listed as “binds”.

B6: SUMO-NrdR2^ECO Δ(132-149) (domain or fragment, E. coli K-12 MG1655)
chain: ENLYPQGSGSGSMHCPFCFAVDTKVIDSRLVGEGSSVRRRRQCLVCNERFTTFEVAELVMPRVVKSNDVREPFNEEKLRSGMLRALEKRPVSSDDVEMAINHIKSQLRATGEREVPSKMIGNLVMEQLKKLDKVAYIRFASVY
With B6, the “stoichiometry N” value in data set [7] is 2.

B7: NrdR2^ECO (GSGSGS-NrdR2, E. coli NrdR after TEV digestion) (natural protein, E. coli K-12 MG1655)
chain: GSGSGSMHCPFCFAVDTKVIDSRLVGEGSSVRRRRQCLVCNERFTTFEVAELVMPRVVKSNDVREPFNEEKLRSGMLRALEKRPVSSDDVEMAINHIKSQLRATGEREVPSKMIGNLVMEQLKKLDKVAYIRFASVYRSFEDIKEFGEEIARLED
B7: the “stoichiometry N” value is 6 in data set [12]; 3 in data set [13]; 4 to 10 (2×) and 8 in data set [14]; 2 in data set [7]; 15 to 16 in data set [10].

The values are drawn from doi:10.1101/2025.03.28.645925 (bioRxiv, 2025).
